Experimental data: the Human Domainome abundance scans (Beltran et al. 2025)
± gives the uncertainty stated by the source.

B1: Far upstream element-binding protein 3, residues 75 to 150; numbered along this chain, Q96I24 (parent)
chain: RTVITEEFKVPDKMVGFIIGRGGEQISRIQAESGCKIQIASESSGIPERPCVLTGTPESIEQAKRLLGQIVDRCRN

Variants of: B1
Experiment: abundance fitness (aPCA) (normalised: wild type 0, dead -1); higher = more abundant; growth selection in yeast, the domain comes from the species named
Conditions: Homo sapiens
RTVITEEFKVPDKIVGFIIGRGGEQISRIQAESGCKIQIASESSGIPERPCVLTGTPESIEQAKRLLGQIVDRCRN gave an abundance fitness of -0.33 ± 0.066.
In the case of RTVITEEFKVPDKMVGFIIGRGGEQISRIQAESGCKIQIASESSGIPERPCVLTGTPESIEQPKRLLGQIVDRCRN, the abundance fitness is reported as -0.986 ± 0.062.
For RTVITEEFKTPDKMVGFIIGRGGEQISRIQAESGCKIQIASESSGIPERPCVLTGTPESIEQAKRLLGQIVDRCRN, the abundance fitness was -0.407 ± 0.038.
Work on RTVITEEFKFPDKMVGFIIGRGGEQISRIQAESGCKIQIASESSGIPERPCVLTGTPESIEQAKRLLGQIVDRCRN yielded an abundance fitness of -0.055 ± 0.057.
With RTVITEEFKVPDKMVGFIIGRGGEQISRIQAWSGCKIQIASESSGIPERPCVLTGTPESIEQAKRLLGQIVDRCRN the abundance fitness was -0.131 ± 0.031.
For RTVITEEFKVPDKMVGFIIGRGGEQISRIQAESGCKIQIASESSGIPERPCVLTGTPESIEQAKRLLGQIVDRCNN, the abundance fitness was -0.126 ± 0.081.
RTVITEEFKVPDKMVGFIIGRGGEQISRIQAESGCKIQIASESSGIPERPCVLTGTPESIEQAKRLLGQIVDRCMN showed an abundance fitness of 0.009 ± 0.051.
Variant RTVITEEFKVPDKMVGQIIGRGGEQISRIQAESGCKIQIASESSGIPERPCVLTGTPESIEQAKRLLGQIVDRCRN has an abundance fitness of -0.031 ± 0.045.
With RTVITEEFKVPDKMVGFIIGRCGEQISRIQAESGCKIQIASESSGIPERPCVLTGTPESIEQAKRLLGQIVDRCRN the abundance fitness was -0.057 ± 0.041.
RTVITEEFKVPDKMVGFIIGRGGEQISRIQAESGCKIQIASESSGIPERPCVLTGTPESIEQAKRLLNQIVDRCRN gave an abundance fitness of -0.043 ± 0.069.
For RTVITEEFKVRDKMVGFIIGRGGEQISRIQAESGCKIQIASESSGIPERPCVLTGTPESIEQAKRLLGQIVDRCRN, the abundance fitness was -0.288 ± 0.029.
RTVITEEFKVPDKMVGFIIGRGGEQISRIQAESGCKIQIASESSGIPERMCVLTGTPESIEQAKRLLGQIVDRCRN gave an abundance fitness of -0.04 ± 0.038.
RTVITEEFKVPDKMVGFIIGRGGEQISRIQAESGCKIQIASESSGIPERPCVLTGTPESIEQATRLLGQIVDRCRN showed an abundance fitness of -0.285 ± 0.035.
Variant RTVITEGFKVPDKMVGFIIGRGGEQISRIQAESGCKIQIASESSGIPERPCVLTGTPESIEQAKRLLGQIVDRCRN has an abundance fitness of -0.083 ± 0.026.
RTVITEEFKVPDKMVGFIIGRGGEQISRIQAESGCKIQIASESSGIPERPCVLTGTPRSIEQAKRLLGQIVDRCRN gave an abundance fitness of -0.086 ± 0.031.
Variant RTVITEEFKVPDKMVGFIIDRGGEQISRIQAESGCKIQIASESSGIPERPCVLTGTPESIEQAKRLLGQIVDRCRN has an abundance fitness of -0.104 ± 0.041.
In the case of RTVITEEFKVPDKMVGFIIGRGGEQISRIQAESGCKIQIASESSGIPERPCVLTGTPESIEQAKRLLGQIADRCRN, the abundance fitness is reported as -0.117 ± 0.03.
In the case of RTVITEEFKVPDKMVGFIIGRGGEQISRIQAESGCKIQIASESSGIRERPCVLTGTPESIEQAKRLLGQIVDRCRN, the abundance fitness is reported as -0.065 ± 0.025.
RTVITEEFKVPDKMVGFIIGRGGEQISRIQAESGCKIKIASESSGIPERPCVLTGTPESIEQAKRLLGQIVDRCRN showed an abundance fitness of -0.022 ± 0.05.
Variant RTVITEEFKVPDKMVGFIIGRGGEQISRIQAESGCKIQIASESSGIPERPCVLTATPESIEQAKRLLGQIVDRCRN has an abundance fitness of -0.855 ± 0.04.
With RTVITEEKKVPDKMVGFIIGRGGEQISRIQAESGCKIQIASESSGIPERPCVLTGTPESIEQAKRLLGQIVDRCRN the abundance fitness was -0.397 ± 0.053.
Variant RTVITEEFKVPDKMVGFIIGRGGEQISRIQAESGWKIQIASESSGIPERPCVLTGTPESIEQAKRLLGQIVDRCRN has an abundance fitness of -0.895 ± 0.054.
RTVITEEFKVPDKMVGFIIGRGGEQISRIQAESGAKIQIASESSGIPERPCVLTGTPESIEQAKRLLGQIVDRCRN showed an abundance fitness of -0.025 ± 0.034.
RTVITEEFKVPDKMVGFIIGRGGEQISRIQAESGKKIQIASESSGIPERPCVLTGTPESIEQAKRLLGQIVDRCRN gave an abundance fitness of -0.608 ± 0.054.
In the case of RTVITEEFKVPDKMVGFDIGRGGEQISRIQAESGCKIQIASESSGIPERPCVLTGTPESIEQAKRLLGQIVDRCRN, the abundance fitness is reported as -0.142 ± 0.046.
RTVITEEFKVPVKMVGFIIGRGGEQISRIQAESGCKIQIASESSGIPERPCVLTGTPESIEQAKRLLGQIVDRCRN showed an abundance fitness of -0.137 ± 0.031.
Work on RRVITEEFKVPDKMVGFIIGRGGEQISRIQAESGCKIQIASESSGIPERPCVLTGTPESIEQAKRLLGQIVDRCRN yielded an abundance fitness of 0.014 ± 0.029.
In the case of RTVITEEFKVPDKMVGFIIGRGGEQISRIQAESGCPIQIASESSGIPERPCVLTGTPESIEQAKRLLGQIVDRCRN, the abundance fitness is reported as -0.811 ± 0.063.
With RTVITEEFKVPDKMEGFIIGRGGEQISRIQAESGCKIQIASESSGIPERPCVLTGTPESIEQAKRLLGQIVDRCRN the abundance fitness was -0.183 ± 0.033.
For RTVITEEFKVPDKMVGFIIGRGGEQISRIQAESGCKIQIASESSGIPERPCVLTGTKESIEQAKRLLGQIVDRCRN, the abundance fitness was -0.009 ± 0.056.
Work on RTVITEEFKVPDKMVGFIIGRGGEQISRIQAESGCKIQIASESSGIPERPCVLTGTPEEIEQAKRLLGQIVDRCRN yielded an abundance fitness of -0.04 ± 0.043.
Work on RTVITEEFKVPDKMVGFIIGRGGEQISRIQAESGCKIQIASESRGIPERPCVLTGTPESIEQAKRLLGQIVDRCRN yielded an abundance fitness of -0.046 ± 0.028.
For RTVITEEFKVPDKMVGFIIGRGGEQISRIQAESGCKIQIASESSGIPEAPCVLTGTPESIEQAKRLLGQIVDRCRN, the abundance fitness was -0.173 ± 0.037.
Variant RTVITEEFKVPDKMVGFIIGRGGEQISRIQAESGCKIQIASESSGIPETPCVLTGTPESIEQAKRLLGQIVDRCRN has an abundance fitness of -0.044 ± 0.046.
With RTVITTEFKVPDKMVGFIIGRGGEQISRIQAESGCKIQIASESSGIPERPCVLTGTPESIEQAKRLLGQIVDRCRN the abundance fitness was -0.06 ± 0.039.
Variant RTVITEEFKVPDKMVGFIIGRGGEQIRRIQAESGCKIQIASESSGIPERPCVLTGTPESIEQAKRLLGQIVDRCRN has an abundance fitness of 0.068 ± 0.029.
